Target: T1, FLAG-CTIF-F460A (human, UniProt O43310 1-598, F460A)
T1 sequence (looked up): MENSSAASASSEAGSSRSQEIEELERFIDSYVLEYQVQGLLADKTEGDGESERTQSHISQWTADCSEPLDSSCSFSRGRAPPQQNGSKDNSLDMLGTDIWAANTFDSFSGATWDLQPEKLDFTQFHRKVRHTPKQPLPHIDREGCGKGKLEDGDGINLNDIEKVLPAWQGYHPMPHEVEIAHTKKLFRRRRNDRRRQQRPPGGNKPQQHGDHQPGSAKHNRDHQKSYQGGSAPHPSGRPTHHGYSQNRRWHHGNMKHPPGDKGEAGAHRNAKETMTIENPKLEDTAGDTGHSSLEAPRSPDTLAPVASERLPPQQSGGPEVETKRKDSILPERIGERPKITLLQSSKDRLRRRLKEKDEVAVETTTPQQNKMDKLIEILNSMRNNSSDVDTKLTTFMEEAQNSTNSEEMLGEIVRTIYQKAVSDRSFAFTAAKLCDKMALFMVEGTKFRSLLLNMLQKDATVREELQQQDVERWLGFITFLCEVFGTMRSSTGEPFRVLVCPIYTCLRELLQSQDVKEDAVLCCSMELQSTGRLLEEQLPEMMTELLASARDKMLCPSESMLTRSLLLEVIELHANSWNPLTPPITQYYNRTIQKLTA
Assay: co-IP

B1: endogenous CBP80 (natural protein, human (endogenous in HEK293T), UniProt Q09161 1-790, looked up)
chain: MSRRRHSDENDGGQPHKRRKTSDANETEDHLESLICKVGEKSACSLESNLEGLAGVLEADLPNYKSKILRLLCTVARLLPEKLTIYTTLVGLLNARNYNFGGEFVEAMIRQLKESLKANNYNEAVYLVRFLSDLVNCHVIAAPSMVAMFENFVSVTQEEDVPQVRRDWYVYAFLSSLPWVGKELYEKKDAEMDRIFANTESYLKRRQKTHVPMLQVWTADKPHPQEEYLDCLWAQIQKLKKDRWQERHILRPYLAFDSILCEALQHNLPPFTPPPHTEDSVYPMPRVIFRMFDYTDDPEGPVMPGSHSVERFVIEENLHCIIKSHWKERKTCAAQLVSYPGKNKIPLNYHIVEVIFAELFQLPAPPHIDVMYTTLLIELCKLQPGSLPQVLAQATEMLYMRLDTMNTTCVDRFINWFSHHLSNFQFRWSWEDWSDCLSQDPESPKPKFVREVLEKCMRLSYHQRILDIVPPTFSALCPANPTCIYKYGDESSNSLPGHSVALCLAVAFKSKATNDEIFSILKDVPNPNQDDDDDEGFSFNPLKIEVFVQTLLHLAAKSFSHSFSALAKFHEVFKTLAESDEGKLHVLRVMFEVWRNHPQMIAVLVDKMIRTQIVDCAAVANWIFSSELSRDFTRLFVWEILHSTIRKMNKHVLKIQKELEEAKEKLARQHKRRSDDDDRSSDRKDGVLEEQIERLQEKVESAQSEQKNLFLVIFQRFIMILTEHLVRCETDGTSVLTPWYKNCIERLQQIFLQHHQIIQQYMVTLENLLFTAELDPHILAVFQQFCALQA
fold change of the co-immunoprecipitated amount against the IP of CTIF-WT: ~2.8 fold

— article PMC8373075 (Nucleic Acids Research, 2021)
